± gives the standard deviation of the averaged measurements.
Assay: total protein half-life in vivo (active degradation + dilution); higher = more stable protein
[1] = E. coli NCM3722 delta-clpP, growth: N-lim chemostat, doubling time 6 h
[2] = E. coli NCM3722 delta-hslV, growth: N-lim chemostat, doubling time 6 h
[3] = E. coli NCM3722 delta-lon, growth: N-lim chemostat, doubling time 6 h
[4] = E. coli NCM3722 delta-smpB, growth: N-lim chemostat, doubling time 6 h
[5] = wild type E. coli NCM3722, growth: C-lim chemostat, doubling time 3 h
[6] = wild type E. coli NCM3722, growth: C-lim chemostat, doubling time 6 h
[7] = wild type E. coli NCM3722, growth: N-lim chemostat, doubling time 6 h
[8] = wild type E. coli NCM3722, growth: N-lim chemostat, doubling time 12 h
[9] = wild type E. coli NCM3722, growth: P-lim chemostat, doubling time 6 h
[10] = wild type E. coli NCM3722, growth: P-lim chemostat, doubling time 12 h
[11] = wild type E. coli NCM3722, growth: C-lim chemostat, doubling time 12 h
[12] = E. coli NCM3722 delta-clpP delta-lon delta-hslV, growth: N-lim chemostat, doubling time 6 h

| Sequence | total protein half-life in vivo [1] [h] | total protein half-life in vivo [2] [h] | total protein half-life in vivo [3] [h] | total protein half-life in vivo [4] [h] | total protein half-life in vivo [5] [h] | total protein half-life in vivo [6] [h] | total protein half-life in vivo [7] [h] | total protein half-life in vivo [8] [h] | total protein half-life in vivo [9] [h] | total protein half-life in vivo [10] [h] | total protein half-life in vivo [11] [h] | total protein half-life in vivo [12] [h] |
| --- | --- | --- | --- | --- | --- | --- | --- | --- | --- | --- | --- | --- |
| MAIALVTGGSRGIGRATALLLAQEGYTVAVNYQQNLHAAQEVMNLITQAGGKAFVLQADISDENQVVAMFTAIDQHDEPLAALVNNAGILFTQCTVENLTAERINRVLSTNVTGYFLCCREAVKRMALKNGGSGGAIVNVSSVASRLGSPGEYVDYAASKGAIDTLTTGLSLEVAAQGIRVNCVRPGFIYTEMHASGGEPGRVDRVKSNIPMQRGGQAEEVAQAIVWLLSDKASYVTGSFIDLAGGK | 5.48 ± 0.058 | 5.67 | 5.69 ± 0.45 | 4.82 | 3.03 ± 0.14 | 5.93 | 4.66 ± 0.41 | 8.32 ± 0.23 | 6.41 ± 0.74 | 11.2 ± 1.9 | – | – |
| MAIERTFSIIKPNAVAKNVIGNIFARFEAAGFKIVGTKMLHLTVEQARGFYAEHDGKPFFDGLVEFMTSGPIVVSVLEGENAVQRHRDLLGATNPANALAGTLRADYADSLTENGTHGSDSVESAAREIAYFFGEGEVCPRTR [P0A763] | 3.93 ± 0.36 | 3.85 ± 0.32 | 4.39 ± 0.36 | 3.92 ± 0.15 | 3.09 ± 0.092 | 5.64 ± 0.11 | 3.88 ± 0.28 | 6.19 ± 0.36 | 5 ± 0.82 | 10.6 ± 0.11 | 9.324 ± 0.023 | – |
| MAIKKRSATVVPGASGAAAAVKNPQASKTSFWGELPQHVMSGISRMVPTLIMGGVILAFSQLIAYSWLKIPAEIGIMDALNSGKFSGFDLSLLKFAWLSQSFGGVLFGFAIPMFAAFVANSIGGKLAFPAGFIGGLMSTQPTQLLNFDPSTMQWATSSPVPSTFIGALIISIVAGYLVKWMNQKIQLPDFLLAFKTTFLLPILSAIFVMLAMYYVITPFGGWINGGIRTVLTAAGEKGALMYAMGIAAATAIDLGGPINKAAGFVAFSFTTDHVLPVTARSIAIVIPPIGLGLATIIDRRLTGKRLFNAQLYPQGKTAMFLAFMGISEGAIPFALESPITAIPSYMVGAIVGSTAAVWLGAVQWFPESAIWAWPLVTNLGVYMAGIALGAVITALMVVFLRLMMFRKGKLLIDSL | – | – | – | – | 2.72 | 4.59 ± 0.42 | – | – | – | – | 6.4 | – |
| MAINNTGSRRLLVTLTALFAALCGLYLLIGGGWLVAIGGSWYYPIAGLVMLGVAWMLWRSKRAALWLYAALLLGTMIWGVWEVGFDFWALTPRSDILVFFGIWLILPFVWRRLVIPASGAVAALVVALLISGGILTWAGFNDPQEINGTLSADATPAEAISPVADQDWPAYGRNQEGQRFSPLKQINADNVHNLKEAWVFRTGDVKQPNDPGEITNEVTPIKVGDTLYLCTAHQRLFALDAASGKEKWHYDPELKTNESFQHVTCRGVSYHEAKAETASPEVMADCPRRIILPVNDGRLIAINAENGKLCETFANKGVLNLQSNMPDTKPGLYEPTSPPIITDKTIVMAGSVTDNFSTRETSGVIRGFDVNTGELLWAFDPGAKDPNAIPSDEHTFTFNSPNSWAPAAYDAKLDLVYLPMGVTTPDIWGGNRTPEQERYASSILALNATTGKLAWSYQTVHHDLWDMDLPAQPTLADITVNGQKVPVIYAPAKTGNIFVLDRRNGELVVPAPEKPVPQGAAKGDYVTPTQPFSELSFRPTKDLSGADMWGATMFDQLVCRVMFHQMRYEGIFTPPSEQGTLVFPGNLGMFEWGGISVDPNREVAIANPMALPFVSKLIPRGPGNPMEQPKDAKGTGTESGIQPQYGVPYGVTLNPFLSPFGLPCKQPAWGYISALDLKTNEVVWKKRIGTPQDSMPFPMPVPVPFNMGMPMLGGPISTAGNVLFIAATADNYLRAYNMSNGEKLWQGRLPAGGQATPMTYEVNGKQYVVISAGGHGSFGTKMGDYIVAYALPDDVK | 7.31 ± 0.86 | 5.96 ± 0.15 | 6.58 ± 0.58 | 6.14 ± 0.11 | 3.18 ± 0.17 | 6.44 ± 0.37 | 6.04 ± 0.28 | 13.4 ± 0.83 | 6.54 ± 0.22 | 13.69 ± 0.084 | 13.8 ± 0.65 | 6.446 ± 0.039 |
| MAIRLYKLAVALGVFIVSAPAFSHGHHSHGKPLTEVEQKAANGVFDDANVQNRTLSDWDGVWQSVYPLLQSGKLDPVFQKKADADKTKTFAEIKDYYHKGYATDIEMIGIEDGIVEFHRNNETTSCKYDYDGYKILTYKSGKKGVRYLFECKDPESKAPKYIQFSDHIIAPRKSSHFHIFMGNDSQQSLLNEMENWPTYYPYQLSSEEVVEEMMSH | – | 7.32 ± 0.35 | – | – | 3.24 ± 0.14 | 6.23 ± 0.17 | – | > 16 | 5.89 ± 0.14 | – | 12.8 ± 0.55 | 5.56 |
| MAISIKGVNTGVIRKSNNFIALALKIKEPRNKESLFFMSVMELRDLLIALESRLHQKHKLDAAAHLQYEQARDKVIKKMAENIPEILVDELKNADINRRVNTLELTDNQGENLTFVLTLHDGSKCELVVNELQIEMLARAIIHAINNAEMRELALRITSLLDFLPLYDVDCQDNGNLEYDTYSQPEWKHNLFDHYLAVLYRFKDESGKEQFSGAVVKTREATPGKEIEAITRRMLDFSPRLKKLAGVPCQVYVRTVAANNAQPLTQDQCLRALHHLRVQSTSKTAPQAK | – | – | – | 2.7 ± 0.24 | 2.52 ± 0.14 | 4.83 ± 1.6 | – | – | – | – | – | 5.19 ± 0.073 |
| MAISSRNTLLAALAFIAFQAQAVNVTVAYQTSAEPAKVAQADNTFAKESGATVDWRKFDSGASIVRALASGDVQIGNLGSSPLAVAASQQVPIEVFLLASKLGNSEALVVKKTISKPEDLIGKRIAVPFISTTHYSLLAALKHWGIKPGQVEIVNLQPPAIIAAWQRGDIDGAYVWAPAVNALEKDGKVLTDSEQVGQWGAPTLDVWVVRKDFAEKHPEVVKAFAKSAIDAQQPYIANPDVWLKQPENISKLARLSGVPEGDVPGLVKGNTYLTPQQQTAELTGPVNKAIIDTAQFLKEQGKVPAVANDYSQYVTSRFVQ | 4.56 ± 0.22 | 5.96 ± 0.29 | 5.56 ± 0.55 | – | 2.98 ± 0.11 | 5.75 ± 1.8 | 5.5 ± 0.39 | 12.4 ± 0.93 | 6.77 ± 1.1 | 11 ± 0.14 | 13.2 ± 2.6 | 4.13 ± 0.43 |

— the supplement of paper PMC11246515
